# Laboratory results: patent US20220064312A1 (SHIONOGI, published 2022)
# Positions count from the first letter of the chain named. Names and notes keep the numbering of the source. Read-outs that look alike come from different tables or passages of the source.
# T1: human CCR4 (human, UniProt P51679 1-360)
# T1 construct: also called hCCR4
# T1 sequence: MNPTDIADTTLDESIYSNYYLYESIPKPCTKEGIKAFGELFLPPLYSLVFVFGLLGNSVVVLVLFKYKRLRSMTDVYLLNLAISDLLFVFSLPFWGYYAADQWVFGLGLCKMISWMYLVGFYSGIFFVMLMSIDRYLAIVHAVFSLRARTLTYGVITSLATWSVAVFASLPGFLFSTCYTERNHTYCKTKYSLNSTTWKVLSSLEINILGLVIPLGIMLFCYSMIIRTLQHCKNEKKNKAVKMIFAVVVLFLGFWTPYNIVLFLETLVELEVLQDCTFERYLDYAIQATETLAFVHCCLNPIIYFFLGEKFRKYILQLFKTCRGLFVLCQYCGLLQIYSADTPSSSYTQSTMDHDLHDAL
# T2: mouse CCR8 (mouse, UniProt P56484 1-353)
# T2 construct: also called mCCR8
# T2 sequence: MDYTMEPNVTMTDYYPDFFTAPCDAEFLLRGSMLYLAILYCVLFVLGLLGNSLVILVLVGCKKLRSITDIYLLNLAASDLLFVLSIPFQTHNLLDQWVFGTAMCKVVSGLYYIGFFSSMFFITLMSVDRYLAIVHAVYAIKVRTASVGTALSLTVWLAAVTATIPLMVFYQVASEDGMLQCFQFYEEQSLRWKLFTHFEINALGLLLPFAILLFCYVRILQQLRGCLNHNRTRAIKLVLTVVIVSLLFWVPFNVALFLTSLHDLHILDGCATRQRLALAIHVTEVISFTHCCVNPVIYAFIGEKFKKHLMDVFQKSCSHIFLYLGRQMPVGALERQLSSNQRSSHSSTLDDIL
# T3: N-ter hCCR4-hCCR8 (human)
# T3 construct: chimera on Expi293 cells; remaining hCCR8 ranges derived from the stated swapped ranges and the 355-residue length; also called N-terminal region human CCR4-substituted human CCR8
# T3 chain: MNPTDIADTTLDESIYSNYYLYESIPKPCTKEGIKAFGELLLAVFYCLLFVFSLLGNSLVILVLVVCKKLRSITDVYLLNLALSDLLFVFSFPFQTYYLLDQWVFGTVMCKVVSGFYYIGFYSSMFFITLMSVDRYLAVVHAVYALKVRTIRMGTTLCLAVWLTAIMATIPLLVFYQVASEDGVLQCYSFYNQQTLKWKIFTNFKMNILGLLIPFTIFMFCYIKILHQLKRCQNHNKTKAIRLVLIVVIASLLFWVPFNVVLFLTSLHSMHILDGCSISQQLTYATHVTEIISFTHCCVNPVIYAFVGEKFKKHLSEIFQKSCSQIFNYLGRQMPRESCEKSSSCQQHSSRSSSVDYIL
# B1: h10A11 (IGKV4-1/IGHV3-15 T94R) (antibody, V domains shown)
# VH: EVQLVESGGALVKPGGSLRLSCAASGFTFSTYALYWVRQAPGKGLEWVGRIRSKSNNYATYYADSVKDRFTISRDDSKNTLYLQMNSLKTEDTAVYYCTRARFYYSDYGYAMDYWGQGTLVTVSS
# VL: DIVMTQSPDSLAVSLGERATINCRSSKSLLHSNGNTYLYWYQQKPGQPPKLLIYRMSNLASGVPDRFSGSGSGTDFTLTISSLQAEDVAVYYCMQHLEYPLTFGQGTKLEIKR
# notes: humanized; detected with anti-human IgG; also called humanized 10A11 antibody (light chain variable region: IGKV4-1/heavy chain variable region: IGHV3-15 T94R)
# B2: h10A11 (IGKV4-1/IGHV3-73) (antibody, V domains shown)
# VH: B1 VH with A10G, K13Q, R19K, T28A, S30N, P41S, L81A
# VL: B1 VL
# B3: 1H4 (antibody, V domains shown)
# VH: EVQLVESGGRLVQPKGSLKLSCAASGFTFNTYAMYWIRQAPGKGLEWVARIRSKSNNYATYYADSVKDRFTISRDDSQSMLYLQMNNLKTEDTAMYYCVRARFYYSDYGYAMDYWGQGTSVTVSS
# VL: DIVMTQAAPSVPVTPGESVSISCRSSKSLLHSNGNTYLYWFLQRPGQSPQLLIYRMSNLASGVPDRFSASGSGTAFTLRISRVEAEDVGVYYCMQHLEYPLTFGAGTKLELKR
# notes: mouse hybridoma antibody
# B4: h19D7 (IGKV2-18/IGHV3-73) (antibody, V domains shown)
# VH: EVQLVESGGGLVQPGGSLKLSCAASGFTFSTYAMYWVRQASGKGLEWVGRIRSKSNNYATYYADSVKDRFTISRDDSKNTAYLQMNSLKTEDTAVYYCTRGGYGNYRYAMDYWGQGTTVTVSS
# VL: DIVMTQTPPSLPVNPGEPASISCRSSKSLLHSNGNTYLYWYLQKPGQSPQLLIYRVSNLASGVPDRFSGSGSGSDFTLKISWVEAEDVGVYYCMQHLEYPFTFGQGTKLEIK
# B5: h19D7 (IGKV3-20/IGHV3-15 T94R) (antibody, V domains shown)
# VH: B4 VH with G10A, Q13K, K19R, S41P, A81L
# VL: EIVLTQSPGTLSLSPGERATLSCRSSKSLLHSNGNTYLYWYQQKPGQAPRLLIYRVSNLASGIPDRFSGSGSGTDFTLTISRLEPEDFAVYYCMQHLEYPFTFGQGTKLEIK
# notes: humanized; detected with anti-human IgG
# Key:
# human CCR8 [1] = molecular target: T4, human CCR8 (human, UniProt P51685 1-355); experiment: cell-based or functional assay
# human CCR8 [2] = molecular target: T4, human CCR8; experiment: cell-based or functional assay; remark: listed apart in the source
# hCCR8 (I20A) = molecular target: T5, hCCR8 (I20A) (human, UniProt P51685 1-355); experiment: flow cytometry, transfected Expi293 cells
# T5 construct: also called hCCR8 (120A)
# Method: (§1) In addition to the chimeras of human CCR4 and the point mutants at the N-terminal region of human CCR8 produced in Example 3, binding evaluation was also performed for point mutants at loop1 and loop2 regions of human CCR8. […] After reacting at room temperature for 3 hours, it was reacted with Alexa488-labeled Anti-human IgG antibody (Thermo Fisher Scientific) and flow cytometry analysis was performed.
# (§2) In comparison to human CCR8, a mutant having binding activity of 70% or less was indicated as Δ and a mutant having binding activity of 20% or less was indicated as x.
# hCCR8 (S22A) = hCCR8 (S22A) (human, UniProt P51685 1-355); experiment: flow cytometry, transfected Expi293 cells
# Method: as §1, §2
# hCCR8 (T32A) = molecular target: T6, hCCR8 (T32A) (human, UniProt P51685 1-355); experiment: flow cytometry, transfected Expi293 cells
# T6 construct: also called hCCR8 (132A)
# Method: as §1, §2
# hCCR8 (K35A) [3] = molecular target: T7, hCCR8 (K35A) (human, UniProt P51685 1-355); experiment: flow cytometry, transfected Expi293 cells
# Method: as §1, §2
# hCCR8 (D97A) = hCCR8 (D97A) (human, UniProt P51685 1-355); experiment: flow cytometry, transfected Expi293 cells
# Method: as §1, §2
# hCCR8 (V180A) = hCCR8 (V180A) (human, UniProt P51685 1-355); experiment: flow cytometry, transfected Expi293 cells
# Method: as §1, §2
# hCCR8 (L181A) = hCCR8 (L181A) (human, UniProt P51685 1-355); experiment: flow cytometry, transfected Expi293 cells
# Method: as §1, §2
# hCCR8 (N188A) = hCCR8 (N188A) (human, UniProt P51685 1-355); experiment: flow cytometry, transfected Expi293 cells
# Method: as §1, §2
# loop1 hCCR4-hCCR8 [4] = molecular target: T8, loop1 hCCR4-hCCR8 (human, UniProt P51685 1-355); experiment: flow cytometry, transfected Expi293 cells
# T8 construct: chimera on Expi293 cells; hCCR8 ranges derived; also called loop 1-human CCR4-substituted human CCR8
# Method: as §1, §2
# loop2 hCCR4-hCCR8 [5] = molecular target: T9, loop2 hCCR4-hCCR8 (human, UniProt P51685 1-355); experiment: flow cytometry, transfected Expi293 cells
# T9 construct: chimera on Expi293 cells; hCCR8 ranges derived; also called loop2-human CCR4-substituted human CCR8
# Method: as §1, §2
# hCCR8 (L5A) = molecular target: T10, hCCR8 (L5A) (human, UniProt P51685 1-355); experiment: flow cytometry, transfected Expi293 cells
# T10 construct: also called hCCR8 (LSA)
# Method: as §1, §2
# human CCR8 [6] = molecular target: T4, human CCR8; experiment: cell-based or functional assay; remark: listed apart in the source
# human CCR8 [7] = molecular target: T4, human CCR8; experiment: cell-based or functional assay; remark: listed apart in the source
# human CCR8 [8] = molecular target: T4, human CCR8; experiment: cell-based or functional assay; remark: listed apart in the source
# hCCR8 (Y17A) = hCCR8 (Y17A) (human, UniProt P51685 1-355); experiment: flow cytometry, transfected Expi293 cells
# human CCR4 = molecular target: T1, human CCR4; experiment: flow cytometry, transfected Expi293 cells
# hCCR8 (K35A) [9] = molecular target: T7, hCCR8 (K35A); experiment: flow cytometry, transfected Expi293 cells; remark: listed apart in the source
# mouse CCR8 = molecular target: T2, mouse CCR8; experiment: flow cytometry, transfected Expi293 cells
# N-ter hCCR4-hCCR8 = molecular target: T3, N-ter hCCR4-hCCR8; experiment: flow cytometry, transfected Expi293 cells
# loop1 hCCR4-hCCR8 [10] = molecular target: T8, loop1 hCCR4-hCCR8; experiment: flow cytometry, transfected Expi293 cells; Δ = significantly reduced vs hCCR8
# loop2 hCCR4-hCCR8 [11] = molecular target: T9, loop2 hCCR4-hCCR8; experiment: as above
# human CCR8 [12] = molecular target: T4, human CCR8; experiment: cell-based or functional assay; remark: listed apart in the source
# hCCR8 (T10A) = hCCR8 (T10A) (human, UniProt P51685 1-355); experiment: flow cytometry, transfected Expi293 cells
# Method: as §1, §2
# hCCR8 (T11A) = hCCR8 (T11A) (human, UniProt P51685 1-355); experiment: flow cytometry, transfected Expi293 cells
# Method: as §1, §2
# hCCR8 (T13A) = hCCR8 (T13A) (human, UniProt P51685 1-355); experiment: flow cytometry, transfected Expi293 cells
# Method: as §1, §2
# hCCR8 (Y15A) = hCCR8 (Y15A) (human, UniProt P51685 1-355); experiment: flow cytometry, transfected Expi293 cells
# Method: as §1, §2
# hCCR8 (S23A) = hCCR8 (S23A) (human, UniProt P51685 1-355); experiment: flow cytometry, transfected Expi293 cells
# Method: as §1, §2
# hCCR8 (L29A) = hCCR8 (L29A) (human, UniProt P51685 1-355); experiment: flow cytometry, transfected Expi293 cells
# Method: as §1, §2
# hCCR8 (K193A) = hCCR8 (K193A) (human, UniProt P51685 1-355); experiment: flow cytometry, transfected Expi293 cells
# Method: as §1, §2
# loop3 hCCR4-hCCR8 = molecular target: T11, loop3 hCCR4-hCCR8 (human, UniProt P51685 1-355); experiment: flow cytometry, transfected Expi293 cells
# T11 construct: chimera on Expi293 cells; hCCR8 ranges derived
# Method: as §1, §2
# T4 sequence (P51685 whole entry): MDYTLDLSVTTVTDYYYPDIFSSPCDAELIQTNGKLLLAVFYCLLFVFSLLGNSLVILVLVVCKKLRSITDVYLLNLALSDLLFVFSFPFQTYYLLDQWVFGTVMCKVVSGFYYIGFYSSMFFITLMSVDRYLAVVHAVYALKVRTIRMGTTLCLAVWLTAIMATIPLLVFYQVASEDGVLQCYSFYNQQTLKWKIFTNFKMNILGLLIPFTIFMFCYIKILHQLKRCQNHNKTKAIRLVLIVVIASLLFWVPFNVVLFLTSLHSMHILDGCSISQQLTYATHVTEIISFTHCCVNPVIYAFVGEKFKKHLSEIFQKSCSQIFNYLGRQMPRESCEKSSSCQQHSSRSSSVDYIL
# hCCR8 (Y17A), sequence (P51685 whole entry Y17A): as the sequence (P51685 whole entry) above, with Y17A counted along it
binder,measurement,setting,value
B1,"IC50 (nM), Ca2+ influx by 200 nM hCCL1",human CCR8 [1],0.15 nM
same,IC50 ratio (WT IC50/mutant IC50),human CCR8 [2],1 ratio
same,binding activity in comparison to human CCR8,hCCR8 (I20A),≤ 70%
same,binding activity in comparison to human CCR8,hCCR8 (S22A),≤ 70%
same,binding activity in comparison to human CCR8,hCCR8 (T32A),≤ 70%
same,binding activity in comparison to human CCR8,hCCR8 (K35A) [3],≤ 70%
same,binding activity in comparison to human CCR8,hCCR8 (D97A),≤ 70%
same,binding activity in comparison to human CCR8,hCCR8 (V180A),≤ 70%
same,binding activity in comparison to human CCR8,hCCR8 (L181A),≤ 70%
same,binding activity in comparison to human CCR8,hCCR8 (N188A),≤ 70%
same,binding activity in comparison to human CCR8,loop1 hCCR4-hCCR8 [4],≤ 70%
same,binding activity in comparison to human CCR8,loop2 hCCR4-hCCR8 [5],≤ 70%
same,binding activity in comparison to human CCR8,hCCR8 (L5A),≤ 70%
B2,"IC50 (nM), Ca2+ influx by 200 nM hCCL1",human CCR8 [1],0.17 nM
same,IC50 ratio (WT IC50/mutant IC50),human CCR8 [6],1 ratio
B3,"Neutralizing Activity IC50 (nM), Ca2+ influx by 100 nM hCCL1",human CCR8 [7],0.32 nM
same,"IC50 (nM), Ca2+ influx by 200 nM hCCL1",human CCR8 [8],0.36 nM
same,binding result,hCCR8 (Y17A),no binding
same,binding result,human CCR4,no binding
same,binding result,hCCR8 (K35A) [9],no binding
same,binding result,mouse CCR8,no binding
same,binding result,N-ter hCCR4-hCCR8,no binding
same,binding result,loop1 hCCR4-hCCR8 [10],binds
same,binding result,loop2 hCCR4-hCCR8 [11],binds
B4,"IC50 (nM), Ca2+ influx by 200 nM hCCL1",human CCR8 [12],0.46 nM
B5,binding activity in comparison to human CCR8,hCCR8 (T10A),≤ 70%
same,binding activity in comparison to human CCR8,hCCR8 (T11A),≤ 70%
same,binding activity in comparison to human CCR8,hCCR8 (T13A),≤ 70%
same,binding activity in comparison to human CCR8,hCCR8 (Y15A),≤ 70%
same,binding activity in comparison to human CCR8,hCCR8 (I20A),≤ 70%
same,binding activity in comparison to human CCR8,hCCR8 (S22A),≤ 70%
same,binding activity in comparison to human CCR8,hCCR8 (S23A),≤ 70%
same,binding activity in comparison to human CCR8,hCCR8 (L29A),≤ 70%
same,binding activity in comparison to human CCR8,hCCR8 (K35A) [3],≤ 70%
same,binding activity in comparison to human CCR8,hCCR8 (L181A),≤ 70%
same,binding activity in comparison to human CCR8,hCCR8 (N188A),≤ 70%
same,binding activity in comparison to human CCR8,hCCR8 (K193A),≤ 70%
same,binding activity in comparison to human CCR8,loop1 hCCR4-hCCR8 [4],≤ 70%
same,binding activity in comparison to human CCR8,loop2 hCCR4-hCCR8 [5],≤ 70%
same,binding activity in comparison to human CCR8,loop3 hCCR4-hCCR8,≤ 70%
same,binding activity in comparison to human CCR8,hCCR8 (L5A),≤ 70%
